Consider one substance from doi:10.1101/2020.06.06.138305.

For this test, the target named is His-tagged encapsulin from Thermotoga maritima (Thermotoga maritima). Put plainly: co-purification.

In the case of “ESig-tagged mini-Singlet Oxygen Generator (miniSOG)”, the stoichiometry N (mSOG molecules per nanocompartment) turned out to be 7.
